# Reference: publication PMC2188490
# Where two headings read alike, the source gives them in different places.
# Experiments:
# Assay in all cases: kinetic titration of prothrombinase activity
# [1] = molecular target: factor V/Va (mixture of nonactivated and activated factor V) purified from rabbit plasma (rabbit)
# [2] = molecular target: factor V/Va (mixture of nonactivated and activated factor V) purified from rabbit plasma (rabbit); remark: listed apart in the source
# [3] = molecular target: high-affinity factor Xa receptor on cultured rabbit alveolar macrophages (rabbit (endogenous in alveolar macrophages))
substance,measurement,setting,value
factor Xa (enzyme),Kd,[1],0.821 nM
same,Kd,[2],0.603 nM
same,Kd,[3],0.211 nM
